In article PMC4669242 (Bioorganic & medicinal chemistry letters, 2013):

Key:
[1] = test system: human red blood cells (hRBCs); experiment: Hemolysis assay, release of hemoglobin; format: cell-based; conditions: hRBCs in PBS pH 7.4, 1 h, 37 °C, OD405; average of two independent experiments
[2] = test system: E. coli; experiment: Leakage of intracellular β-galactosidase; format: cell-based, E. coli (ATCC 25922); conditions: 1 h of treatment, 37 °C, ONPG, OD405, average of three independent experiments

## Melittin
[1]
  concentration inducing hemolysis (lowest concentration tested): ≤ 1000 nM
[2]
  increase in β-galactosidase release as compared to control buffer: 8 fold
